In the series the target is T1, GST-MYB21 (Arabidopsis thaliana, UniProt Q9LK95 1-226).
T1 sequence: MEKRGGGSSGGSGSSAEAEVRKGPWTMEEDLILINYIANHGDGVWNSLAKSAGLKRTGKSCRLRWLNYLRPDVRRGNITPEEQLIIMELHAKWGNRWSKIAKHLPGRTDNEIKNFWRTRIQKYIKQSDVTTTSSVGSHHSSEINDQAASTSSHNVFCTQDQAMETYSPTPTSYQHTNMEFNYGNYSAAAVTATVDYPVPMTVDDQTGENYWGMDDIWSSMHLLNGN
As to the kind of experiment: EMSA; LightShift Chemiluminescent EMSA kit (Thermo), per manufacturer; buffer, salt, pH and temperature not stated. The note with it: protein: recombinant; tags: N-terminal GST (pGEX-4T-1); label: biotin (via primer S18, 5' tail); blunt. For orientation: Mobility shift assays separate free from complexed probe on a gel.

B1: GARE1 FLS1 promoter probe (dsDNA)
DNA 1: AGCCAGTGGCGATAAGCTCTCACCTTTTTTTTGTTATTTTATATCTTAAG
DNA 2: CTTAAGATATAAAATAACAAAAAAAAGGTGAGAGCTTATCGCCACTGGCT
Consider B1, for which the binding result is “binds”.

B2: GARE2 FLS1 promoter probe (dsDNA)
DNA 1: AGCCAGTGGCGATAAGCTGGGCCTTGTCTTGTTATATGGGCCTTGAATC
DNA 2: GATTCAAGGCCCATATAACAAGACAAGGCCCAGCTTATCGCCACTGGCT
In the case of B2, the binding result is recorded as “binds”.

Values taken from paper PMC8163065, “Involvement of the R2R3-MYB transcription factor MYB21 and its homologs in regulating flavonol accumulation in Arabidopsis stamen”.
